The target in this test is wild-type ElDyP lacking the His6 tag (subtilisin A-treated, for crystallization) (Enterobacter lignolyticus). As to the kind of experiment: crystal structure.

The substance “wild-type ElDyP lacking the His6 tag (subtilisin A-treated, for crystallization) (enzyme)” returned a stoichiometry N of 2.

The term stoichiometry N denotes the number of molecules, sites or subunits per partner or assembly.

The values above are taken from PMC5751952.
